Assay results taken from PMC10442857, “Cellular Uptake of a Fluorescent Ligand Reveals Ghrelin O-Acyltransferase Interacts with Extracellular Peptides and Exhibits Unexpected Localization for a Secretory Pathway Enzyme” (ACS Chemical Biology, 2023).
Each block holds one molecule with its values, some of them ahead of it. Peptide text beside a SMILES is read from it.

Key:
[1] = target: human ghrelin O-acyltransferase (hGOAT) of the hGOAT inhibition assays (human) (UniProt Q96T53)
22Rv1 cells = assay: GOAT ligand labeling and imaging in 22Rv1 prostate cancer cells; format: cell-based, human; details: 5 μM ligand 15 with 40 μM ligand 12, 30 min RT, p < 0.05
Method: Prostate cancer (PCa) cells LNCaP (ATCC, CRL-1740) and 22Rv1 (ATCC, CRL-2505) were maintained in a 75 mL vented tissue culture flask (Celltreat) at 37 °C with 5% CO2 in complete 1× RPMI (Roswell Park Memorial Institute) media supplemented with 10% FBS and 1% (v/v) penicillin-streptomycin (Mediatech). Cell lines were passaged upon reaching 70% confluency (∼2–3 days). For microscopy studies, PCa cells were plated in 2 mL of complete 1× RPMI in a six-well plate (Corning) containing sterile 12 mm poly-L-lysine coated glass coverslips (Neuvitro, GG-12-PDL) in each well. The cells were allowed to adhere and reach 70% confluence on the coverslips prior to labeling.
Upon reaching confluency, coverslips with attached PCa cells were treated with ligands at the indicated concentration for 30 min at RT (unless otherwise stated). Cells were washed 3× with 1× phosphate-buffered saline (PBS) (Cellgro) and then fixed for immunofluorescence staining as described above. For ligand competition experiments, cells were incubated with 5 μM ligand 15 alone, 5 μM ligand 15 with 40 μM ligand 12, or PBS alone for 30 min at RT. […]
The fluorescence range of intensity was adjusted identically for each image series. […] Total cell fluorescence was determined by calculating the integrated density of mean gray value in a cell area compared to background as shown in eqs 4 and 5. […]

GHSR (GHS-R1a) = target: T1, GHSR (GHS-R1a) (Homo sapiens, UniProt Q92847); assay: biochemical; format: binding; details: lower limit from test at 100 µM; read-out: IC50 against GHSR
T1 construct: expressed in transfected cells; host or cells: HEK 293 cells transfected with GHS-R1a (membrane suspension)
Method: Peptide binding affinity for the ghrelin receptor was determined using a competitive radioligand-displacement binding assay,[22] with details provided in the Supporting Information. […]
GHSR receptor binding assays. Peptide binding affinity for the ghrelin receptor was determined using a competitive radioligand-displacement binding assay.1 Assays were performed using GHS-R1a transfected HEK 293 cells as the receptor source and human His[125I]-ghrelin(1−28) (PerkinElmer Inc. NEX388010UC ) as the radioligand. Human ghrelin(1−28) was used as a reference to ensure the validity of the results. A suspension of membrane from HEK 293/GHS-R1a cells (100,000 cells per assay tube) were incubated with ghrelin(1−8) peptide analogues (at […]
ghrelin (15 pM per assay tube) in binding buffer (25 mM HEPES, 5 mM magnesium chloride, 1 mM calcium chloride, 2.5 mM EDTA, and 0.4% BSA, pH 7.4). The resulting suspension was incubated for 20 min under shaking (550 rpm) at 37 °C. Unbound [ 125I]-ghrelin was removed and the amount of [ 125I]-ghrelin bound to the membranes was measured by γ counter. IC 50 values were determined by nonlinear regression analysis to fit a four-parameter dose−response curve using Prism 6 (version 6.0c). All binding assays were performed in triplicate. […]

[2] = target: T2, human ghrelin O-acyltransferase (hGOAT) of the hGOAT inhibition assays (human, UniProt Q96T53 1-435); assay: cell-based or functional assay
T2 sequence (looked up): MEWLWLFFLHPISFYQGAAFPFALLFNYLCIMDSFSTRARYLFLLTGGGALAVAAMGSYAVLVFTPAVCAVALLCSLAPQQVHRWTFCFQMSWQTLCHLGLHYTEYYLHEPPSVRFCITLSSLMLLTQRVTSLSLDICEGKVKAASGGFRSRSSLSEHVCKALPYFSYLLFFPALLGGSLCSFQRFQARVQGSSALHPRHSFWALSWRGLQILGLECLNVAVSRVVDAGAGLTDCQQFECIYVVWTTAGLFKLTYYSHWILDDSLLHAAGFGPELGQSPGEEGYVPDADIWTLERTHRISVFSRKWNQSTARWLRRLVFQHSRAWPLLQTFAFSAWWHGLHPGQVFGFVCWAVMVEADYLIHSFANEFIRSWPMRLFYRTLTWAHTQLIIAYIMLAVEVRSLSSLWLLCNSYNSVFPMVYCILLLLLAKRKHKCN

inhibition of hGOAT activity by ligand 15 (IC50) [1]: 17 nM
Molecule: ligand 15, H-GS-Dap-Nal-1-LSPTK(SulfoCy5)-NH2 (peptide)

IC50 (GHSR (GHS-R1a)): ≥ 100000 nM
Molecule: CC(C)C[C@H](NC(=O)[C@H](Cc1cccc2ccccc12)NC(=O)[C@H](CN)NC(=O)[C@H](CO)NC(=O)CN)C(=O)N[C@@H](CO)C(=O)N1CCC[C@H]1C(=O)N[C@H](C(N)=O)[C@@H](C)O [ligand 12, H-GS-Dap-Nal-1-LSPT-NH2] (HELM PEPTIDE1{G.S.[NC[C@H](N[*:1])C(=O)[*:2]].[O=C([C@H](Cc1cccc2ccccc12)N[*:1])[*:2]].L.S.P.T.[am]}$$$$V2.0)
effect of unlabeled competitor on ligand 15 internalization (total cell fluorescence) (22Rv1 cells): significant reduction of ligand 15 internalization

inhibition of hGOAT activity (IC50 against hGOAT) [2]: > 100000 nM
B1: ligand 5, H-Inp-S-Dap-FLSPY-NH2 (peptide)
chain: XSXFLSPY
HELM: PEPTIDE1{[O=C(C1CCNCC1)[*:2]].S.[NC[C@H](N[*:1])C(=O)[*:2]].F.L.S.P.Y.[am]}$$$$V2.0
SMILES: CC(C)C[C@H](NC(=O)[C@H](Cc1ccccc1)NC(=O)[C@H](CN)NC(=O)[C@H](CO)NC(=O)C1CCNCC1)C(=O)N[C@@H](CO)C(=O)N1CCC[C@H]1C(=O)N[C@@H](Cc1ccc(O)cc1)C(N)=O

inhibition of hGOAT activity (IC50 against hGOAT) [2]: 6 nM
B2: ligand 12, H-GS-Dap-Nal-1-LSPT-NH2 (peptide)
chain: GSXXLSPT
HELM: PEPTIDE1{G.S.[NC[C@H](N[*:1])C(=O)[*:2]].[O=C([C@H](Cc1cccc2ccccc12)N[*:1])[*:2]].L.S.P.T.[am]}$$$$V2.0
SMILES: CC(C)C[C@H](NC(=O)[C@H](Cc1cccc2ccccc12)NC(=O)[C@H](CN)NC(=O)[C@H](CO)NC(=O)CN)C(=O)N[C@@H](CO)C(=O)N1CCC[C@H]1C(=O)N[C@H](C(N)=O)[C@@H](C)O
